# Reference: patent US8124349B2, “Toll-like receptor assays” (University of Massachusetts, priority 2003, dated 2012)
# T1: TLR9 (Homo sapiens, UniProt Q9NR96)
# T1 construct: expressed in transfected cells; host or cells: HEK293 cells stably expressing TLR^FP
# T1 sequence (Q9NR96 26-1032): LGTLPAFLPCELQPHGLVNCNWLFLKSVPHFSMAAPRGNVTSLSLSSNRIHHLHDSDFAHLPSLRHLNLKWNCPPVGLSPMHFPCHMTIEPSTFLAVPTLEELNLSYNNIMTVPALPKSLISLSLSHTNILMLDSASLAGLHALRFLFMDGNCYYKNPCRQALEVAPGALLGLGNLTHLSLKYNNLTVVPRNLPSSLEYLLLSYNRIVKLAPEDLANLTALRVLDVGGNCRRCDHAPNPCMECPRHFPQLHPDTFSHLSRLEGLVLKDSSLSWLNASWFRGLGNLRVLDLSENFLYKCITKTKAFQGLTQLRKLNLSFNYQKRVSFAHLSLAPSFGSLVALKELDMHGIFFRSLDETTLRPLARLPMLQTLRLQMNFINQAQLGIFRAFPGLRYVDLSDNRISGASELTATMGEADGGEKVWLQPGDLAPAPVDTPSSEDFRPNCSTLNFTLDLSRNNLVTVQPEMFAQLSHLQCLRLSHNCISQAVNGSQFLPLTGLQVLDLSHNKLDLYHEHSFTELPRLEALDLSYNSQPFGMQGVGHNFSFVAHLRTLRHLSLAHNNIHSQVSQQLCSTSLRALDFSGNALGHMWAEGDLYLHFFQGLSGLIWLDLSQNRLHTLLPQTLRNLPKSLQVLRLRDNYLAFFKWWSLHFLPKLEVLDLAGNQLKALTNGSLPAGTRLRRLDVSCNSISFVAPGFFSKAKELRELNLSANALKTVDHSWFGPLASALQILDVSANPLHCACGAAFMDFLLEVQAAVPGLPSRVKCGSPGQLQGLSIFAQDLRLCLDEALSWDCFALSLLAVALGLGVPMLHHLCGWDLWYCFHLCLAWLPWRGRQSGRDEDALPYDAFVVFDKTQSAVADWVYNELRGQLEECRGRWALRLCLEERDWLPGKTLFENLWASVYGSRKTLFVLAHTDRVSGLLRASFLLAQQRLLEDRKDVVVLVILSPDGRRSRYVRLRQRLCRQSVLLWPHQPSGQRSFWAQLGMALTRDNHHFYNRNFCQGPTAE
# T2: TLR9^YFP (Homo sapiens, UniProt Q9NR96)
# T2 construct: expressed in transfected cells; host or cells: HEK cells stably expressing TLR9^YFP, used as cellular lysate
# T2 sequence (Q9NR96 26-1032): T1 sequence (Q9NR96 26-1032)
# B1: PorinB: the protein PorinB from Neisseria meningitidis (protein)
# chain: DVTLYGTIKAGVETSRSVFHQNGQVTEVTTATGIVDLGSKIGFKGQEDLGNGLKAIWQVEQKASIAGTDSGWGNRQSFIGLKGGFGKLRVGRLNSVLKDTGDINPWDSKSDYLGVNKIAEPEARLISVRYDSPEFAGLSGSVQYALNDNAGRHNSESYHAGFNYKNGGFFVQYGGAYKRHHQVQEGLNIEKYQIHRLVSGYDNDALYASVAVQQQDAKLTDASNSHNSQTEVAATLAYRFGNVTPRVSYAHGFKGLVDDADIGNEYDQVVVGAEYDFSKRTSALVSAGWLQEGKGENKFVATAGGVGLRHKF
# Tests used:
# TLR9 = molecular target: T1, TLR9; experiment: TLR9 signaling in TLR9-expressing HEK cells; assay type: cell-based
# Procedure: Cellular activation was assessed by NF-κB-luciferase reporter assay. Briefly, HEK293 cells that stably express a TLR^FP or empty vector (pcDNA) were seeded into 96-well tissue culture plates at a density of 2×10^4 cells/well. The following day, cells were transiently transfected with luciferase reporter genes using Genejuice (Novagen) per the manufacturer's recommendations. In order to assess NF-κB activation, an NF-κB-luciferase reporter gene consisting of an artificial promoter composed of a multimer of five NF-κB sites driving the firefly luciferase gene, was co-transfected with a constitutively active Renilla-luciferase reporter gene (Promega, Madison, Wis.).
# TLR9^YFP = molecular target: T2, TLR9^YFP; experiment: Competition plate assay: TLR9^YFP binding to plate-bound biotinylated CpG-DNA 2006 in presence of competitor; conditions: plates coated with 0.3 μM biotin-CpG-DNA 2006; competitor added to TLR9^YFP lysate; FIGS. 5A-D
# From the text: This assay can be adapted for use in drug-screening applications. For example, the interaction of TLR9 with CpG-DNA reflects a clinically important receptor/ligand interaction since a variety of autoimmune diseases are thought to be based on the interaction of DNA-antibody complexes with this receptor (Leadbetter et al., 2002, Nature 416:603-607). Thus, antagonists for this interaction are useful for the development of novel anti-inflammatory drugs. To examine the application of this assay to the identification of such compounds (e.g., compounds that increase or decrease the interaction) and so are potential drugs for ameliorating TLR-related disorders, a competition assay was developed that was based on the basic plate assay described above. The competition assay was performed essentially as described above for the plate assay. In addition, non-biotinylated CpG-DNA (“cold ligand”) or other compounds that interfere with TLR9 signaling (R848 or bacterial DNA) were added to the TLR9-containing lysates. The ability of the various compounds to inhibit binding of TLR9^YFP to the plate-bound biotinylated CpG-DNA was then evaluated.
# In the assay, NeutrAvidin™ plates (Pierce) were coated with 0.3 μM biotin-CpG-DNA 2006 as described above. […]
# TLR2:Fc = molecular target: T3, TLR2:Fc (Homo sapiens, UniProt O60603); experiment: Cell-free ELISA: plated TLR2:Fc probed with biotinylated ligand; assay type: binding; conditions: FIG. 8B
# T3 construct: a fusion protein consisting of the extracellular domain of TLR2 and the mouse Fc portion of immunoglobulin G, isotype 2a
# Procedure: (§1) Briefly, various TLR2 ligands were plated on plastic in carbonate buffer pH 9 for two hours at different concentrations (X axis) in duplicate points. After washing (PBS-0.05% Tween 20), a fusion protein consisting of the extracellular domain of TLR2 and the mouse Fc portion of immunoglobulin G, isotype 2a (TLR2:Fc, see U.S. Provisional Patent Application Ser. No. 60/598,774), was added at 1 mg/ml (0.1 mg/well).
# (§2) In a similar setting, the TLR2:Fc fusion protein and the related TLR4:Fc, were plated on plastic and the biotinylated ligand used to probe the wells. The TLR2 bound biotinylated protein was reveled using a HRP conjugated anti biotin polyclonal antiserum (NEB).
# TLR4:Fc = molecular target: T4, TLR4:Fc (Homo sapiens, UniProt O00206); experiment: Cell-free ELISA: plated TLR4:Fc probed with biotinylated ligand; assay type: binding; conditions: FIG. 8B
# T4 construct: the TLR2:Fc fusion protein and the related TLR4:Fc, were plated on plastic
# Procedure: as §1, §2
# TLR2 = molecular target: T5, TLR2 (Homo sapiens, UniProt O60603); experiment: NF-κB luciferase reporter assay in 293 cells stably expressing TLR2; assay type: cell-based; conditions: 0.01-10 μg/ml stimulant; FIG. 7B
# T5 construct: expressed in transfected cells; host or cells: 293 (HEK 293) cells stably expressing TLR2
# Procedure: 293 cells stably expressing TLR4/MD-2 (as described in Visintin et al., 2003, J. Biol. Chem., 278(48):48313-48320) or TLR2 were stimulated using lipopolysaccharide (LPS) or PorinB, and the extent of activation measured as the activation of a NF-κB-dependent reporter gene encoding for the Luciferase gene. To measure NF-κB activation, 2 μg of a reporter plasmid in which NF-κB drives the synthesis of luciferase was transiently cotransfected with 5 μg of the indicated cDNA by lipofection (GeneJuice) in 10-cm tissue culture dishes following the manufacturer's recommendations. The following morning, cells were seeded at a density of 50,000 cells/well in a 96-well plate, allowed to recover for 5 hours, and stimulated as indicated between 6 and 18 hours. Luciferase activity was measured with a plate reader luminometer (Victor^2, PerkinElmer Life Sciences) using chemicals provided with the luciferase assay system (Promega, Madison, Wis.). All data are presented as the means ±S.D. of triplicate well readings, normalized to a value of 1.0 in comparison with an unstimulated negative control.
# T3 sequence (O60603 21-588 limits assumed, species assumed): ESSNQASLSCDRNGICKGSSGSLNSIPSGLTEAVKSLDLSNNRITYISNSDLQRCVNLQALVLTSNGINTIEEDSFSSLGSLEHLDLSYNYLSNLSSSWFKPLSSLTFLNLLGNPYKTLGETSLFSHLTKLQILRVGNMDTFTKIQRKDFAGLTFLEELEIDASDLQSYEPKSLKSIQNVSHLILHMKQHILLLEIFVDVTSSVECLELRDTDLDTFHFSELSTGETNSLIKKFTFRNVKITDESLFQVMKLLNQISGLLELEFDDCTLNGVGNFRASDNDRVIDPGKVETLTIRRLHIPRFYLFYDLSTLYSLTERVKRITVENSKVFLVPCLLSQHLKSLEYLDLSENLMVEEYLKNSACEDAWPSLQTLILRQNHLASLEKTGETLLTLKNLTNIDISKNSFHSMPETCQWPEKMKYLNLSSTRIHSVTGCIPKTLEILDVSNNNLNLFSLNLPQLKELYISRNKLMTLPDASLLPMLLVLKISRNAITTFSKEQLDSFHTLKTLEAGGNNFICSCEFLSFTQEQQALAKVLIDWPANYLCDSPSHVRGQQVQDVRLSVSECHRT
# T4 sequence (O00206 24-631 limits assumed, species assumed): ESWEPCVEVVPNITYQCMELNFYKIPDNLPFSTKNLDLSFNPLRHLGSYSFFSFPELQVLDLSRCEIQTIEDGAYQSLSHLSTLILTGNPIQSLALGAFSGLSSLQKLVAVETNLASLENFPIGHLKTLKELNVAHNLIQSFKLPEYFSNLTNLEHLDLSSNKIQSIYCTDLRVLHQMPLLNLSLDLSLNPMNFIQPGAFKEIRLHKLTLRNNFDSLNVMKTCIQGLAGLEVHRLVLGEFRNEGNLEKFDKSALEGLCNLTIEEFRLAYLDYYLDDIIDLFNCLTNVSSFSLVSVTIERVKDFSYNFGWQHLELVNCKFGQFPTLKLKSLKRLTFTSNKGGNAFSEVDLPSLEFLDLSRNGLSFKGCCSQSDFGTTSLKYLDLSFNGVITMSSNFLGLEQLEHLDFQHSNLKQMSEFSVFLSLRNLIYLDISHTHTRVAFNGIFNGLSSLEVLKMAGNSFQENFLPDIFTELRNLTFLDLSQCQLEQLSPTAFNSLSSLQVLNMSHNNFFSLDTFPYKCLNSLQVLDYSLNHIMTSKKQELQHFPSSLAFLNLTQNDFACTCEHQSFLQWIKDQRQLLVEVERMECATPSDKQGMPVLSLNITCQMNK
# T5 sequence (O60603 21-784, species assumed): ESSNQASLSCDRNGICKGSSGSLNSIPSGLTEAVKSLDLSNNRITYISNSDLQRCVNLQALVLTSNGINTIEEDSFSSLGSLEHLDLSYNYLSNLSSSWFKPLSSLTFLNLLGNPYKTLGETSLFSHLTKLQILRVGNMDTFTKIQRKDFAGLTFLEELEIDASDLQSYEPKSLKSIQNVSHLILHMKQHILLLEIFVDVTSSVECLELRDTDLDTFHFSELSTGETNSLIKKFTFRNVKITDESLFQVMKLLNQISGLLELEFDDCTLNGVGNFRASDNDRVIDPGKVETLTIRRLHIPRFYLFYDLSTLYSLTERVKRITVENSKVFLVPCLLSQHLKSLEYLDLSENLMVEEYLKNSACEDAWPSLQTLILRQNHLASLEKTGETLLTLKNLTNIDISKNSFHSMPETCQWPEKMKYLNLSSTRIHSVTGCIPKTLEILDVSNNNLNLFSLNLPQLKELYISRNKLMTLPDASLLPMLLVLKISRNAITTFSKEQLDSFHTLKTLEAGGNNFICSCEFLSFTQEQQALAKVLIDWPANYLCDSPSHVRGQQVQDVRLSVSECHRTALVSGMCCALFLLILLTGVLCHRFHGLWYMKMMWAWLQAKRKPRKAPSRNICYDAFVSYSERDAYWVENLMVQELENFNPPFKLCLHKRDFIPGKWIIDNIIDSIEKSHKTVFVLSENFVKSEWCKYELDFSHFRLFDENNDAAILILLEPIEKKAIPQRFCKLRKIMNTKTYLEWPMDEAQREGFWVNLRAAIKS
# T5 sequence (Q15399 25-786 partner, species assumed): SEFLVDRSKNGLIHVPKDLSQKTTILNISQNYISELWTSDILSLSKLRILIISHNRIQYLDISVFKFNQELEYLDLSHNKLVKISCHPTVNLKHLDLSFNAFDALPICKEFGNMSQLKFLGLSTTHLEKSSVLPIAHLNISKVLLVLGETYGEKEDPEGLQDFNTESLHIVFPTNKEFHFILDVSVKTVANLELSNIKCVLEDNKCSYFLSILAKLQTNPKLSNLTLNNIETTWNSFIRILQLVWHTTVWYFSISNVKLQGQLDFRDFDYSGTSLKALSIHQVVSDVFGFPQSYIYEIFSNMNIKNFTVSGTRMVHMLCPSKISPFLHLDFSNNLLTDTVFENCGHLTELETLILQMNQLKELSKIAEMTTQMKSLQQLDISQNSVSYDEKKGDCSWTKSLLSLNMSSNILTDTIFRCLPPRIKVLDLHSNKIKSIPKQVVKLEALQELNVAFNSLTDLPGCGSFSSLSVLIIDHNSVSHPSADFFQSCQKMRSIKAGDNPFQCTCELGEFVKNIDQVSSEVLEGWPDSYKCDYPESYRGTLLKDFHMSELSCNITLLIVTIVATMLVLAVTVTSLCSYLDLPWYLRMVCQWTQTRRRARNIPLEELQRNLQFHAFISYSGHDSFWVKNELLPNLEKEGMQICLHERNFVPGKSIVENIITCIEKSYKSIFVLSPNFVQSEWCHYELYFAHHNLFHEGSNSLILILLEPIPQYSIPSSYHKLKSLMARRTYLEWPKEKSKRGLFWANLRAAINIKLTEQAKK
molecule,measurement,setting,value
CCOCc1nc2c(N)nc3ccccc3c2n1CC(C)(C)O [R848],Inhibition of TLR9 signaling,TLR9,inhibited TLR9 signaling in a dose dependent manner
same,Inhibition of TLR9 binding to biotinylated immobilized CpG-DNA,TLR9^YFP,did not interfere with the binding of TLR9 to CpG-DNA
bacterial alkaline phosphatase (BAP): bacterial alkaline phosphatase,Binding of biotinylated ligand to plated TLR2:Fc,TLR2:Fc,bind to TLR2:Fc
same,Binding of biotinylated ligand to plated TLR4:Fc,TLR4:Fc,not to TLR4:Fc
B1,NF-κB reporter activation in TLR2 expressing cells,TLR2,efficiently activates
same,Binding of biotinylated ligand to plated TLR2:Fc,TLR2:Fc,specifically bound
same,Binding of biotinylated ligand to plated TLR4:Fc,TLR4:Fc,did not
